The values below come from US12692294B2, “Engineered NRG-1 variants with improved selectivity toward ErbB4 but not against ErbB3” (Amgen Inc., priority 2021, dated 2026).

Broadly, the EC50 is the concentration giving half of the maximal effect.

The target in one test is T1, ErbB3 (Rattus norvegicus, UniProt Q62799).
T1 construct: forming the ErbB2/ErbB4 complex in cardiomyocytes and the ErbB2/ErbB3 complex in Schwann cells; endogenous in cells; host or cells: rat Schwann cells
In words: In vitro phosphorylation of Akt in rat Schwann cells. It is filed as cell-based. Particulars: Akt (Serine 473) phosphorylation, 15 minutes treatment, read-out: Schwann cells (SC) (ErbB3) Avg EC50. How it is done: (§1) In Vitro Phosphorylation of Akt in Neonatal Rat Cardiomyocytes and Rat Schwann Cells by Neuregulin Variants
(§2) Specificity of neuregulin variants towards cardiomyocytes (ErbB4) versus Schwann cells (ErbB3) was tested by measuring Akt activity generated by formation of the ErbB2/ErbB4 and ErbB2/ErbB3 complexes. Upon activation by neuregulin, the ErbB4 and ErbB3 receptors dimerize preferentially with the ErbB2 co-receptor, forming the ErbB2/ErbB4 complex in cardiomyocytes and the ErbB2/ErbB3 complex in Schwann cells, both of which signal through the Akt pathway. Neonatal rat cardiomyocytes were isolated from hearts of Sprague Dawley rat pups at 0 to 4 days old according to manufacturer's protocol using the Neomyt kit and plated on Surecoat plates in NS media containing serum (all from Cellultron Life Technologies, Baltimore, MD). Rat Schwann cells were plated in Poly-D-Lysine coated plates with Dulbecco's modified Eagle's media (DMEM) supplemented with fetal bovine serum (Thermo Fisher) and forskolin (Millipore Sigma).
(§3) After a 24-hour incubation in a humidified incubator maintained at 37° C. and 5% CO2, cardiomyocytes and Schwann cells were washed with serum free media and incubated an additional 16 hours in DMEM supplemented with bovine serum albumin (Sigma). Both cell lines were then treated with titrations of the neuregulin variant molecules for 15 minutes, upon which cells were lysed in lysis buffer (Meso Scale Discovery (MSD)). For detection of Akt phosphorylation, lysates were added to the Multi-Spot 96-Well 4-Spot Phospho (Serine 473)/Total Akt plates (MSD), incubated according to the manufacturer's protocol and read in the SECTOR Imager 6000 (MSD). For both cell assays, the percent phosphorylation of Akt was calculated by multiplying the phospho Akt signal by 2, then dividing by the phospho Akt signal added to the total Akt signal and then multiplying by 100. The phosphorylation of Akt data points were fitted using a log (agonist) versus response, variable slope (4 parameters) analysis in GraphPad Prism to generate EC50 curves. The CM % agonism reflect the top value of the data points.

A further test concerns the target T2, ErbB4 (Rattus norvegicus, UniProt Q62956).
T2 construct: forming the ErbB2/ErbB4 complex in cardiomyocytes and the ErbB2/ErbB3 complex in Schwann cells; endogenous in cells; host or cells: primary neonatal rat cardiomyocytes (Sprague Dawley pups, 0 to 4 days old)
Briefly: In vitro phosphorylation of Akt in neonatal rat cardiomyocytes. It is filed as cell-based. Particulars: for EC50: Akt (Serine 473) phosphorylation, neonatal rat cardiomyocytes, 15 minutes treatment, read-out: Cardiomyocyte (CM) (ErbB4) Avg EC50; for Selectivity SC/CM: ratio of EC50s Schwann cells/cardiomyocytes; for CM % Agonism AVG: top value of the Akt phosphorylation data points in cardiomyocytes, wild-type control 100. How it is done: as §1, §2, §3

T1 sequence (Q62799 20-1339): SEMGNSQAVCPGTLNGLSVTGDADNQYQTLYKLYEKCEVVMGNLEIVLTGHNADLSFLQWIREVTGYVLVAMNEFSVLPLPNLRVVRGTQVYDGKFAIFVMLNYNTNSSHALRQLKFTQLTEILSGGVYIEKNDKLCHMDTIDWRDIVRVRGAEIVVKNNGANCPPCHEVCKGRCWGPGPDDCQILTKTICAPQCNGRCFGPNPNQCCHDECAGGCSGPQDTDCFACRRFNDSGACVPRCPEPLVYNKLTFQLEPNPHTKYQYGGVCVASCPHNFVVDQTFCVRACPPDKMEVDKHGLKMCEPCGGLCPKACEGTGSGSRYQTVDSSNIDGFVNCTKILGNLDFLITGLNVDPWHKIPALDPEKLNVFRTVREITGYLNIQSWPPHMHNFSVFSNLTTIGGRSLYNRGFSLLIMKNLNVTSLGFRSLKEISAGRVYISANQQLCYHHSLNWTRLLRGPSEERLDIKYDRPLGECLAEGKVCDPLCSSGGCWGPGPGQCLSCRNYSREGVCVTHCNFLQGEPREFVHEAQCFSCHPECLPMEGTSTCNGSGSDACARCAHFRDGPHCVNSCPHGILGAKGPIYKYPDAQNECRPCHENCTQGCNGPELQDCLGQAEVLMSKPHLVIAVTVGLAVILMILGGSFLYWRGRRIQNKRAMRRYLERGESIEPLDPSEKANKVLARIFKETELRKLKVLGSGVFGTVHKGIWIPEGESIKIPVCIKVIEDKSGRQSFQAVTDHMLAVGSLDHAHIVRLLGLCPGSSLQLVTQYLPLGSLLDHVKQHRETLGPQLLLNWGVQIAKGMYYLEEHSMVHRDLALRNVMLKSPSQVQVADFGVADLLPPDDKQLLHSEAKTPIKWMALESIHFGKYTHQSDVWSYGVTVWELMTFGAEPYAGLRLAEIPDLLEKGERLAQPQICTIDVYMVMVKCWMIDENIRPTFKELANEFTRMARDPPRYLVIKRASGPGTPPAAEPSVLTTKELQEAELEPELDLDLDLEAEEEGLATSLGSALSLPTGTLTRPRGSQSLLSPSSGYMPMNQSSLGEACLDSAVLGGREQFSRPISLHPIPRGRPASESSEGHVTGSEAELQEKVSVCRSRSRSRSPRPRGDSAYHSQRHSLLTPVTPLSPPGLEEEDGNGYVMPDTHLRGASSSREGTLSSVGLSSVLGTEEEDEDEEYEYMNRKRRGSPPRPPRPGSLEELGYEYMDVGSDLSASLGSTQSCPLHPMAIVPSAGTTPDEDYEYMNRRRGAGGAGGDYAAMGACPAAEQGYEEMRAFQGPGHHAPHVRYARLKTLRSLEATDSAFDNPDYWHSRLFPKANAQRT
T1 sequence (P06494 23-1257 partner): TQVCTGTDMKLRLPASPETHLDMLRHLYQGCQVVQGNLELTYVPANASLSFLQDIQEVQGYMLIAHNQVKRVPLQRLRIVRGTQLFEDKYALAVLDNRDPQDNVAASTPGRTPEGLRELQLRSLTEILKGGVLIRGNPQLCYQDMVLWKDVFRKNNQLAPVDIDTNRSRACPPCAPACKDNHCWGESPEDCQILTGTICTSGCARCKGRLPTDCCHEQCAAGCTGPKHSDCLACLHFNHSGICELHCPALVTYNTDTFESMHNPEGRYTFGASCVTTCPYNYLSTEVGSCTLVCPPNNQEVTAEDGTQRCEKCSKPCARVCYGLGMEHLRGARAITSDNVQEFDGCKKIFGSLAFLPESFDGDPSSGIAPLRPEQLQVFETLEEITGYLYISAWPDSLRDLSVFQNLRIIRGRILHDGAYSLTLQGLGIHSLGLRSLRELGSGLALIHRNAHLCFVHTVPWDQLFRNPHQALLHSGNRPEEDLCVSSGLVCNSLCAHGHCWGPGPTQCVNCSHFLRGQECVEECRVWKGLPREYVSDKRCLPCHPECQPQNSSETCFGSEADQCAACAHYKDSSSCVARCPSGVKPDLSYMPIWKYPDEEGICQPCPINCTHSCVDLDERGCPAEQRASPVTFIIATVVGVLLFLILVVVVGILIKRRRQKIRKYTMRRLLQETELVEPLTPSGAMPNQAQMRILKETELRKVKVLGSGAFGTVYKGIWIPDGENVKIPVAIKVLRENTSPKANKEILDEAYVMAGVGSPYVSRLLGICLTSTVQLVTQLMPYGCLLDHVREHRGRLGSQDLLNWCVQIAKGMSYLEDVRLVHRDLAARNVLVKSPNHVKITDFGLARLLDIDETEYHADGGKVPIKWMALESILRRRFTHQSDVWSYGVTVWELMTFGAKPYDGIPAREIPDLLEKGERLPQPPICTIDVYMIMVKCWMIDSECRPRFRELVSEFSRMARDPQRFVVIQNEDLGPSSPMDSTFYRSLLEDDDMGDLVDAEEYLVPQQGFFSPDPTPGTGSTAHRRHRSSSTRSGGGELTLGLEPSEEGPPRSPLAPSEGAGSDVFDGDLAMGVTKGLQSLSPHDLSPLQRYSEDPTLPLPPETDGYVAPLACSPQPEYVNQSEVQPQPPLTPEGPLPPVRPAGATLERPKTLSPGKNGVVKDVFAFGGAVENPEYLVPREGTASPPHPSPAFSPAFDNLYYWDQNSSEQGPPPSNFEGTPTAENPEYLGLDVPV
T2 sequence (Q62956 26-1308): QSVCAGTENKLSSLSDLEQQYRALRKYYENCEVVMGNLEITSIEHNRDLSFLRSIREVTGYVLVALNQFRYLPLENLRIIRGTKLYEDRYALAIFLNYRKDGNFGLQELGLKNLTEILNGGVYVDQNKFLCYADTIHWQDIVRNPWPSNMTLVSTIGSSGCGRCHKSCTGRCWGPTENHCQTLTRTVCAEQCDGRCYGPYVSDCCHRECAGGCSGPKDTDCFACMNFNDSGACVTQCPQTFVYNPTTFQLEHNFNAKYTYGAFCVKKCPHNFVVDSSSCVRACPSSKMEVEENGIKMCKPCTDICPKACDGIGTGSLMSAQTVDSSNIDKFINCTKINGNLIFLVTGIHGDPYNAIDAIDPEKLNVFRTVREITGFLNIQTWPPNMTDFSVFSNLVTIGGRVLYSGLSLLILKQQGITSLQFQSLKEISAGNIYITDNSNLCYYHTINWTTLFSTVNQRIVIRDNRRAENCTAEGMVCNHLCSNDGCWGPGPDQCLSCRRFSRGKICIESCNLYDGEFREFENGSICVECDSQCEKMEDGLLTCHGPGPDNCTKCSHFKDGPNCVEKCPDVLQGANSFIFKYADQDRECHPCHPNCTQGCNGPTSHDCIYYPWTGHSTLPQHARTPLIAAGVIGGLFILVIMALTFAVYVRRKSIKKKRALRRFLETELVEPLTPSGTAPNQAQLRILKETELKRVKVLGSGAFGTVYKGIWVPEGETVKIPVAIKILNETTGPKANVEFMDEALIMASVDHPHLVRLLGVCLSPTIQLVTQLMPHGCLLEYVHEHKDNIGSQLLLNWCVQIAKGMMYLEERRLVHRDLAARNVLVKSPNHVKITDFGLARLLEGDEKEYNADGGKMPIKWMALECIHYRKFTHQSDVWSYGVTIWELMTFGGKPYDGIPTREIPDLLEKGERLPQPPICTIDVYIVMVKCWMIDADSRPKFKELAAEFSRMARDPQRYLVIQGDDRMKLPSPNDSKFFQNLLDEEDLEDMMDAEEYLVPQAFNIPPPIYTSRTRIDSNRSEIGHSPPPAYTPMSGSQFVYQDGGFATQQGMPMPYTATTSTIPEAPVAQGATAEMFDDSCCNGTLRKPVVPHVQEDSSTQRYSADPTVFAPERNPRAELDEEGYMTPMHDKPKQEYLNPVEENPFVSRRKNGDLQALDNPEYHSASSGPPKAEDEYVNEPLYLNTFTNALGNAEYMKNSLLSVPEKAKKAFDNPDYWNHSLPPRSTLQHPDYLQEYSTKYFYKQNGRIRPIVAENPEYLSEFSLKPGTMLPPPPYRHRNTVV
T2 sequence (P06494 23-1257 partner): as the sequence (P06494 23-1257 partner) above

B1: huNRG1(S177-F229)(NRGE1C) 6xHis: 6xHis-tagged NRG1 variant SEQ ID NO:117 (protein)
chain: SHLVKCGEKHKSFCVNGGECFMIEGPSNPSRYLCKCPNEFTGDRCQEDFMASFGGGGEGGGGAGGGGHHHHHH
modifications: 6xHis tag; huNRG1(S177-F229)(NRGE1C) 6xHis
For the molecule B1, in the test with ErbB3, the half-maximal effective concentration (EC50) worked out at 10000 nM. Moreover, in the test with ErbB4, the half-maximal effective concentration (EC50) was found to be 1.44 nM, the “Selectivity SC/CM” value is on record as greater than 10000 and the “CM % Agonism AVG” value was 106%.

B2: huNRG1(S177-F229)(NRGE1C) (D48T_F49Q_M50I) 6xHis: 6xHis-tagged NRG1 variant SEQ ID NO:118 (protein)
chain: SHLVKCGEKHKSFCVNGGECFMIEGPSNPSRYLCKCPNEFTGDRCQETQIASFGGGGEGGGGAGGGGHHHHHH
modifications: 6xHis tag; huNRG1(S177-F229)(NRGE1C) (D48T_F49Q_M50I) 6xHis
For B2, in the test with ErbB3, the concentration for a half-maximal effect (EC50) is 10000 nM. Besides, in the test with ErbB4, the concentration for a half-maximal effect (EC50) was 0.712 nM, the “Selectivity SC/CM” value is greater than 10000 and the “CM % Agonism AVG” value was 105.7%.

B3: huNRG1(S177-F229)(NRGE1C) (E47A_D48P_F49H_M50I) 6xHis: 6xHis-tagged NRG1 variant SEQ ID NO:119 (protein)
chain: SHLVKCGEKHKSFCVNGGECFMIEGPSNPSRYLCKCPNEFTGDRCQAPHIASFGGGGEGGGGAGGGGHHHHHH
modifications: 6xHis tag; huNRG1(S177-F229)(NRGE1C) (E47A_D48P_F49H_M50I) 6xHis
Regarding B3, in the test with ErbB3, the half-maximal effective concentration (EC50) stood at 10000 nM. In the test with ErbB4, the concentration for a half-maximal effect (EC50) was 1.1 nM, the “Selectivity SC/CM” value is greater than 10000 and the “CM % Agonism AVG” value is 96.47%.

B4: huNRG1(S177-F229)(NRGE1C) (E47K_D48T_F49S_M50L) 6xHis: 6xHis-tagged NRG1 variant SEQ ID NO:120 (protein)
chain: SHLVKCGEKHKSFCVNGGECFMIEGPSNPSRYLCKCPNEFTGDRCQKTSLASFGGGGEGGGGAGGGGHHHHHH
modifications: 6xHis tag; huNRG1(S177-F229)(NRGE1C) (E47K_D48T_F49S_M50L) 6xHis
B4: the EC50 in the test with ErbB3 worked out at 10000 nM. Besides, in the test with ErbB4, the 50% effective concentration (EC50) stood at 0.825 nM, the “Selectivity SC/CM” value is recorded as greater than 10000 and the “CM % Agonism AVG” value was 91.82%.

B5: huNRG1(S177-S228)(NRGE1C)::3x(G4Q)::huFcSEFL2 (Pb): Fc fusion of NRG1 variant SEQ ID NO:116 (protein)
chain: STYRCVSVLTVLHQDWLNGKEYKCKVSNKALPAPIEKTISKAKGQPREPQVYTLPPSREEMTKNQVSLTCLVKGFYPSDIAVEWESNGQPENNYKTTPPVLDSDGSFFLYSKLTVDKSRWQQGNVFSCSVMHEALHNHYTQKSLSLSPGK
modifications: huNRG1(S177-S228)(NRGE1C)::3x(G4Q)::huFcSEFL2 (Pb)
As for B5, in the test with ErbB3, the concentration for a half-maximal effect (EC50) was determined as 783 nM. Moreover, in the test with ErbB4, the EC50 worked out at 14.8 nM and the “Selectivity SC/CM” value turned out to be 53.

B6: huNRG1(S177-S228)(wt)::3x(G4Q)::huFcSEFL2 (Pb): Fc fusion of wild-type NRG1 fragment S177-S228 (protein)
chain: STYRCVSVLTVLHQDWLNGKEYKCKVSNKALPAPIEKTISKAKGQPREPQVYTLPPSREEMTKNQVSLTCLVKGFYPSDIAVEWESNGQPENNYKTTPPVLDSDGSFFLYSKLTVDKSRWQQGNVFSCSVMHEALHNHYTQKSLSLSPGK
modifications: huNRG1(S177-S228)(wt)::3x(G4Q)::huFcSEFL2 (Pb)
Regarding B6, in the test with ErbB3, the EC50 came to 0.07 nM. In addition, in the test with ErbB4, the EC50 came to 2.6 nM and the “Selectivity SC/CM” value was found to be 0.03.
